Where two headings read alike, the source gives them in different places.
B1: P2D3(TPP-2196): comparative anti-TWEAKR antibody; variable domains from patent literature "WO2009/020933 and WO2009/140177", constant region added, "resulting in full-length IgGs" (antibody)
heavy: QVSLKESGPGILQPSQTLSLTCSFSGFSLSTSGMGVSWIRQPSGKGLEWLAHIYWDDDKRYNPSLKSRLTISKDTSRNQVFLKITSVDTADTATYYCARRGPDYYGYYPMDYWGQGTSVTVSAKTTAPSVYPLAPVCGDTTGSSVTLGCLVKGYFPEPVTLTWNSGSLSSGVHTFPAVLQSDLYTLSSSVTVTSSTWPSQSITCNVAHPASSTKVDKKIEPRGPTIKPCPPCKCPAPNLLGGPSVFIFPPKIKDVLMISLSPIVTCVVVDVSEDDPDVQISWFVNNVEVHTAQTQTHREDYNSTLRVVSALPIQHQDWMSGKEFKCKVNNKDLPAPIERTISKPKGSVRAPQVYVLPPPEEEMTKKQVTLTCMVTDFMPEDIYVEWTNNGKTELNYKNTEPVLDSDGSYFMYSKLRVEKKNWVERNSYSCSVVHEGLHNHHTTKSFSRTPG
light: DIVLTQSPASLAVSLGQRATISCRASKSVSTSSYSYMHWYQQKPGQPPKLLIKYTSNLESGVPARFSGSGSGTDFILNIHPVEEEDAATYYCQHSRELPWTFGGGTKLEIKRADAAPTVSIFPPSSEQLTSGGASVVCFLNNFYPKDINVKWKIDGSERQNGVLNSWTDQDSKDSTYSMSSTLTLTKDEYERHNSYTCEATHKTSTSPIVKSFNRNEC
modifications: Mus Musculus
B2: 18.3.3(TPP-2193): comparative anti-TWEAKR antibody; variable domains "obtained from the patent literature WO2009/020933", constant region added, "resulting in full-length IgGs" (antibody)
heavy: EVKLGESGGGLVQPGGSMKLSCVASGFPFTKYWMNWVRQSPEKGLEWVAEIRLKSDNYATHYAESAKGRFTISRDDSRSSVYLQMNNLRAEDTAIYYCSPTYADTMDYWGQGTSVTVSSAKTTAPSVYPLAPVCGDTTGSSVTLGCLVKGYFPEPVTLTWNSGSLSSGVHTFPAVLQSDLYTLSSSVTVTSSTWPSQSITCNVAHPASSTKVDKKIEPRGPTIKPCPPCKCPAPNLLGGPSVFIFPPKIKDVLMISLSPIVTCVVVDVSEDDPDVQISWFVNNVEVHTAQTQTHREDYNSTLRVVSALPIQHQDWMSGKEFKCKVNNKDLPAPIERTISKPKGSVRAPQVYVLPPPEEEMTKKQVTLTCMVTDFMPEDIYVEWTNNGKTELNYKNTEPVLDSDGSYFMYSKLRVEKKNWVERNSYSCSVVHEGLHNHHTTKSFSRTPG
light: DIVLTQSPASLAVSLGQRATISCKASQSVSTSTYSYMQWYQQRPGQSPKLLIKYASKLDSGVPARFSGSGSGTDFTLNIHPVEEEDTATYYCQHSWELPYTFGGGTRLEIKRADAAPTVSIFPPSSEQLTSGGASVVCFLNNFYPKDINVKWKIDGSERQNGVLNSWTDQDSKDSTYSMSSTLTLTKDEYERHNSYTCEATHKTSTSPIVKSFNRNEC
modifications: Mus Musculus

Assays:
[1] = Caco-2 flux assay for cell permeability; format: in vitro ADME; details: human; Caco-2, 2 hours
Method: The cell permeability of a substance can be investigated by means of in vitro testing in a flux assay using Caco-2 cells [M. D. Troutman and D. R. Thakker, Pharm. Res. 20 (8), 1210-1224 (2003)]. For this purpose, the cells were cultured for 15-16 days on 24-well filter plates. For the determination of permeation, the respective working example was applied in a HEPES buffer to the cells either apically (A) or basally (B) and incubated for 2 hours. After 0 hours and after 2 hours, samples were taken from the cis and trans compartments. The samples were separated by HPLC (Agilent 1200, Böblingen, Germany) using reverse phase columns. The HPLC system was coupled via a Turbo Ion Spray Interface to a Triple Quadropol mass spectrometer API 4000 (Applied Biosystems Applera, Darmstadt, Germany). The permeability was evaluated on the basis of a Papp value, which was calculated using the formula published by Schwab et al. [D. Schwab et al., J. Med. Chem. 46, 1716-1725 (2003)].
Of critical importance for toxophores which are released intracellularly is the permeability from B to A [Papp (B−A)] and the ratio of Papp (B−A) to Papp (A−B) (efflux ratio): the lower this permeability, the slower the active and passive transport processes of the substance through the monolayer of Caco-2 cells.

KPL4 = experiment: MTT assay, cytotoxic effects of the ADCs; format: cell-based; details: Homo sapiens, metabolite, read-out: KPL-4 IC50 [M] MTT Assay
Method: (§1) The analysis of the cytotoxic effects of the anti-TWEAKR-ADCs was carried out with various cell lines:
KPL4: human breast carcinoma cells, standard medium: RPMI 1640+GlutaMAX I+10% FBS, cell bank, Bayer Pharma AG (identity checked and confirmed on 19 Jul. 2012 at DSMZ), Berlin, ERBB2-positive.
(§2) The cells are cultivated by a standard method, as indicated in the […] (ATCC) for the respective cell lines.
(§3) The test was carried out by detaching the cells with a solution of Accutase in PBS (Biochrom AG #L2143), pelleting, resuspending in culture medium, counting and seeding the cells into a 96-well culture plate with white bottom (Costar #3610, LoVo:1000 cells/well, SK-HEP-1: 1200 cell/well, NCI H292: 1500 cell/well in a total volume of 100 μL). The cells were then incubated in an incubator at 37° C. and 5% carbon dioxide. After 48 h, the antibody drug conjugates were added in 10 μl of culture medium in concentrations of from 10^−5M to 10^−13M to the cells (triplicates) and incubated in an incubator at 37° C. and 5% carbon dioxide. After 96h, the proliferation was measured using the MTT assay (ATCC, Manassas, Va., USA, catalogue No. 30-1010K). […] The dye formed was detected at 570 nm (Infinite M1000 pro, Fa. Tecan). Based on the measured data the IC50 value was determined from the DRC (dose response curve). […]

NCI-H292 = experiment: MTT assay, cytotoxic effects of the ADCs; format: cell-based; details: Homo sapiens, metabolite
Method: as §1
NCI-H292: human mucoepidermoid lung carcinoma cells, ATCC-CRL-1848, standard medium: RPMI 1640 (Biochrom; #FG1215, stab. glutamine)+10% FCS (Biochrom; #S0415), TWEAKR-positive, EGFR-positive.
as §2, §3

[2] = molecular target: recombinant human TWEAKR protein (TPP-2305) (Homo sapiens (Human), UniProt Q9NP84); experiment: Biacore surface plasmon resonance binding affinity; details: for ka / kd: monovalent, 1:1 binding model
Method: Binding affinities of anti-TWEAKR antibodies were examined using surface plasmon resonance analysis on a Biacore T100 instrument (GE Healthcare Biacore, Inc.). The antibodies were immobilized on a CMS sensor chip using an indirect capture reagent, anti-human IgG(Fc). Reagents of the “Human Antibody Capture Kit” (BR-1008-39, GE Healthcare Biacore, Inc.) were used as described by the manufacturer. Anti-TWEAKR antibodies were injected at a concentration of 10 μg/ml at 10 μl/min for 10 sec.
Sensorgrams were generated after in-line reference cell correction, followed by subtraction of the buffer sample. The dissociation constant (KD) was calculated based on the ratio of association (kon) and dissociation (koff) constants, obtained by fitting sensorgrams using a 1:1 first order binding model.

[3] = molecular target: hTNFRSF12 amino acids a28-80-H60K-hIgG1-Fc (TPP-1989) (Homo sapiens (Human), UniProt Q9NP84, H60K); experiment: ELISA mutein binding; details: mutein coated 62 ng/ml, biotinylated IgG; read-out: Effect of muteins on antibody binding: H60K
Method: (§4) To this end, the full-length ectodomain (amino acids 28-80) having the individual amino acid substitutions below were expressed and purified as Fc fusion proteins: T33Q; S40R; W42A; M50A; R56P; H60K; L65Q.
(§5) To obtain dose-reaction data, the different TWEAKR-Fc muteins were coated at a low concentration (62 ng/ml) onto a 384-well Maxisorb ELISA plate, and a serial 2-fold dilution of biotinylated IgG beginning with a concentration of 100 nM was used as a soluble binding partner. Detection was carried out using streptavidin-HRP and Amplex Red.
(§6) IgGs were biotinylated using an about 2-fold molar excess of biotin-LC-NHS (Pierce; Cat. No. 21347) according to the instructions of the manufacturer and desalted using Zeba desalting columns (Pierce; Cat. No. 89889). The dose-reaction data were fitted and the IC50s were determined.

[4] = molecular target: hTNFRSF12 amino acids a28-80-W42A-hIgG1-Fc (TPP-1985) (Homo sapiens (Human), UniProt Q9NP84, W42A); experiment: ELISA mutein binding; details: mutein coated 62 ng/ml, biotinylated IgG; read-out: Effect of muteins on antibody binding: W42A
Method: as §4, §5, §6

[5] = molecular target: hTNFRSF12 amino acids a28-80-M50A-hIgG1-Fc (TPP-1988) (Homo sapiens (Human), UniProt Q9NP84, M50A); experiment: ELISA mutein binding; details: mutein coated 62 ng/ml, biotinylated IgG; read-out: Effect of muteins on antibody binding: M50A
Method: as §4, §5, §6

[6] = molecular target: hTNFRSF12 amino acids a28-80-L65Q-hIgG1-Fc (TPP-1990) (Homo sapiens (Human), UniProt Q9NP84, L65Q); experiment: ELISA mutein binding; details: mutein coated 62 ng/ml, biotinylated IgG; read-out: Effect of muteins on antibody binding: L65Q
Method: as §4, §5, §6

[7] = molecular target: hTNFRSF12 amino acids a28-80-T33Q-hIgG1-Fc (TPP-1986) (Homo sapiens (Human), UniProt Q9NP84, T33Q); experiment: ELISA mutein binding; details: mutein coated 62 ng/ml, biotinylated IgG; read-out: Effect of muteins on antibody binding: T33Q
Method: as §4, §5, §6

[8] = molecular target: hTNFRSF12 amino acids a28-80-R56P-hIgG1-Fc (TPP-2683) (Homo sapiens (Human), UniProt Q9NP84, R56P); experiment: ELISA mutein binding; details: mutein coated 62 ng/ml, biotinylated IgG; read-out: Effect of muteins on antibody binding: R56P
Method: as §4, §5, §6

[9] = molecular target: hTNFRSF12 amino acids a28-80-S40R-hIgG1-Fc (TPP-1987) (Homo sapiens (Human), UniProt Q9NP84, S40R); experiment: ELISA mutein binding; details: mutein coated 62 ng/ml, biotinylated IgG; read-out: Effect of muteins on antibody binding: S40R
Method: as §4, §5, §6

[10] = molecular target: hTNFRSF12 amino acids a28-80-hIgG1-Fc (TPP-599) (Homo sapiens (Human), UniProt Q9NP84); experiment: ELISA mutein binding (wild type); details: coated 62 ng/ml, biotinylated IgG; read-out: Effect of muteins on antibody binding: WT
Method: as §4, §5, §6

TWEAKR = TWEAKR (Homo sapiens (Human), UniProt Q9NP84); details: literature values; read-out: published KD values; cited from earlier work
[11] = Biacore, read-out: KD (affinity to TWEAKR)

Molecule | Papp B→A at 2 h [1] [×10⁻⁶ cm/s] | IC50 (KPL4) [M] | IC50 (NCI-H292) [pM] | Kd [2, 11] [pM] | Kd ([2]; monovalent KD, read-out: KD) [pM] | ka [2] [M⁻¹ s⁻¹] | kd [2] [s⁻¹] | IC50 [3] [pM] | IC50 [4] [pM] | IC50 [5] [pM] | IC50 [6] [pM] | IC50 [7] [pM] | IC50 [8] [pM] | IC50 [9] [pM] | IC50 [10] [pM] | Kd (TWEAKR) [pM]
CC(=O)N[C@@H](CCCCNC(=O)CC[C@H](N)C(=O)O)C(=O)NCCNC(=O)[C@@H](N)CCN(C(=O)CO)[C@@H](c1cc(-c2cc(F)ccc2F)cn1Cc1ccccc1)C(C)(C)C.O=C(O)C(F)(F)F [Example M100, N^6-L-gamma-glutamyl-N^2-acetyl-N-[2-({(2S)-2-amino-4-[{(1R)-1-[1-benzyl-4-(2,5-difluorophenyl)-1H-pyrrol-2-yl]-2,2-dimethylpropyl}(glycoloyl)amino]butanoyl}amino)ethyl]-L-lysinamide trifluoro acetate (1:1)] | 0.12 | > 5e-07 | > 500000 |  |  |  |  |  |  |  |  |  |  |  |  | 
B1 |  |  |  | 700 to 3700 | 400 | 1.32e+06 | 0.000564 |  |  |  |  |  |  |  |  | 
B2 |  |  |  | 700 to 3700 |  | 1.64e+07 | 0.0285 | 1 to 150 | > 50000 | 1 to 150 | 1 to 150 | 1 to 150 | > 50000 | 1 to 150 | 1 to 150 | 200

— patent US11806404B2, “Site specific homogeneous with KSP inhibitors” (BAYER PHARMA AKTIENGESELLSCHAFT, priority 2015, dated 2023)
